Measured values as given in the RNAGym collection of RNA variant scans (doi:10.1073/pnas.2313332121).

B1: TPR t1 (parent)
chain: GACCAAUCUGCCCUCAGAGCUCGAGAACAUCUUCGGAUGCAGAGGAGGCAGGCUUCGGUGGCGCGAUAGCGCCAACGUCCUCAACCUCCAAUGCAUCCCACCACAUGAUGAUGCCUGAAGAGCCUUGGUUUUUUG

Variants of: B1
Assay: polymerase ribozyme fitness, log enrichment relative to wild type (log ratio); higher = more active; in vitro selection for triplet polymerase activity
Outline: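 Mutant libraries of each subunit of a heterodimeric triplet polymerase ribozyme were built by PCR and transcribed. Each library went through one round of in vitro selection in triplicate: annealing with biotinylated primer, partner subunit and triplets, frozen incubation at −7 °C, gel excision of extended constructs, streptavidin-bead capture and RT-PCR. Input and output libraries were Illumina-sequenced; only genotypes with ≥10 input reads and ≥1 read per output were kept. Fitness is log2(genotype enrichment/wild-type enrichment), using inverse-variance-weighted replicate averages.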

Variant	polymerase ribozyme fitness (log ratio)
C56U G128C	-2.63
C15U G110C	-4.52
C94A G117C	-4.31
C13G C49A G60U	-2.3
C4A U78C	-1.45
C73G C97G C114A A121G	-5.74
C3U U7G A84U C101U G110U U125A	-3.16
C80G A121U	-3.78
C62U G110C	-3.93
A18G U132A	-3.07
C11A G69U G93A G128U	-3.27
C20U C97G	-5.61
A46C C115A	-1.52
G71A U96G C123A	-0.833
C4G C64U	-2.5
G51U G71C U78C C114A	-7.09
G10A C13U G45U G117A	-0.718
A5C G17A C82A	-5.14
C56U A95C G128C	-2.78
C8A G45C A50C G57C G93C	-2.56
C12G C79A A91C	-2.84
G61C G65A C82U	-7.8
C88A A105C	-2.46
U55G C73U G110A	-0.834

Variant	polymerase ribozyme fitness (log ratio)
C12G C104U G128C U133A	-0.738
G61A C88G U129A	-1.82
A16U G117A	-2.22
C22U A46C C70U	-6.66
C12G G120A	1.87
G10C A74G	-1.26
A2U C13U C72G C114U	-3.41
C34G C124U	-4.28
G10U C73G U92A C101U C104U	-4.21
G39A C73A G117A A119G	1.02
C104U	0.111
G23A A50U G61U G71C A100C A105C U116C U125A G128U	-5.77
C8A U14A C101G	-1.85
C20G C56G A84U	-4.43
C22G C64U C115U A121U	-2.57
U59G C102A	-1.41
A26U A46C A90G U106A G127C	-2.32
C8A A84U	0.295
U9C G17A A18G G113U	-4.74
G10A C11A G42U G48A G63A A66U A91G C115U	-6.69
G52A C62U G117U	-2.86
C12G A121U	1.78
U7A U21C	0.0698
A46G G77C C97U C124G	0.934

Variant	polymerase ribozyme fitness (log ratio)
C11U A43U C53G	-2.46
C8U U14A A41C C64U G93U C115U U125G U132A U133G	-6.39
C40G C82A A83C U87A A121U	-0.502
G42A G69A G93C	-6.98
C64A U112G G122A	-7.31
G42A C70A C102U C114G U125A	-6.46
C3U	-0.284
C11A C72U	-1.58
C3G A46U	-2.71
C101A A105C A118U	-4.79
C40A C72U U92A C115A	-1.91
C20U A41C C72A C101G	-3.66
C34A A46U A75G C102U A111G	-3.22
C56G A91U A111C	-2.73
A50G G51U C89A C124U	-4.23
G71C U81C A90G	-2.36
C8U U59G A75U U81G C124U	-2.31
C49A G60A G135C	-0.655
C4U C8G U33G C85G C94U	-6
A37U G44A U87G A119U G128C	-3.53
C79G C124G U125A	-4.24
C62U U96A	-0.822
C12G G36U G61U A111C	0.246
A111G G113C	-2.06

Variant	polymerase ribozyme fitness (log ratio)
G113A U126G	-3.39
G52U G77C	-0.813
U33C U132A	-4.81
C4G G45A C114U	-4.45
U9C G10A	0.0311
A2U G23C G39A A50U G61C A91C G93C A111U	-6
C13U A29U C56A G65A G77A	-6.34
U78G	-0.246
C8U C56U	0.434
G42U A46C C53A U92A A95C C104G U112A	-7.25
U7A U21C G71U A90G	-0.779
C4A U55C	-2.5
G61U G93A	0.0678
C49U C53U G60A G122A U133G	-1.32
U112G G135U	-1.01
G10U A29G G52U C79G	-2.85
G110A C115A	-1.87
C56A C73U A84U G120U	-1.05
G44U C72U A121U	0.777
G19U C20U U106C	-2.36
A29G U32C G42U G47C	-4.18
C20U C72A A119U	-1.58
G10U A43U G45C U78A	-2.4
U59C G120A	0.486

Variant	polymerase ribozyme fitness (log ratio)
C34A A121U	-0.134
U33C G39U	-5.33
C56G	-0.465
C13U C40U G48U G110A G117U A118U	-4.23
G44C G60U U116C C124A	-0.335
G19A G63A U92A	-4.56
U38G C73G A95C A100C U106A G127A	-2.6
A5U C70A	-2.56
C8A U9G C85G C89A U126G G127C	-2.22
C4A U7A	-0.986
G17C C34G C99U G110U G127U	-5.7
C3A U7G U32C G60U G93C A111C	-2.96
A6U G52U C53G C70U G128C	-2.99
C73U C86A C97U C102U	-4.11
G61C U78G U130G	-4.62
C4G C56G C64U	-3.26
A41G G63U G117C	-6.01
C22U A43C C123G	-4.32
G39C G44U	-2.29
C70G C86A	-4.89
A66G U106G	-3.66
C49U G57U C79A	-3.24
G47C C79A	-5.18
C11G G42C C53A	-1.03

Variant	polymerase ribozyme fitness (log ratio)
U112C C124G	1.79
G44U C49U U96C A111G	-3.97
C40U G61C C88A	-2.87
A2C C56G	-1.9
C53G U130A	-0.508
G10A U33C C86A A111U	-6.34
C11A A46C G63A U131G	-2.39
G63C A84U G117A	-2.46
U9A C31G C73G C85A U109C	-5.57
A6G G48U U54A G127A	-2.59
C70G U96A	-4.79
C13G C53U	-1.87
G71A C114U	-2.27
A46C C72G G135U	-2.4
A6C U7A A27G U78C G113A	-1.35
C40A G71C C101A U131C	-3.67
A43U C70G	-4.41
A18U C56U C94U A111C C114U	-5.39
C11A C56A G69A A84G A121C	-4.27
C8A G17A C72U U126A	-3.12
C3A G44A A46U C53G C115U	-6.56
C94A C102U	-4.66
C8A C12G U14C C73U G77C C101A	-1.62
C12U A46C C53G C72U C73G A84C A95C	-5.01

Variant	polymerase ribozyme fitness (log ratio)
U59A C94A	-0.84
C40G C86U C101A	-2.66
C11G C88U U116C	-0.109
C8G C98G U132C	-4.39
A74U G113A	-1.11
U9A G63U U78A G93C C124G G128C	-3.75
C4A A95U	-1.38
U106A G110U U126A U130A	-3.03
U32A G44A C94A C99G G120U	-7.6
G51U U54C U59G	-3.68
C12U A103U	-4.81
A5C C73G A84U	-2.25
G60A G69U A95U U126A	-2.8
A2C G71U	-2.08
G10U G63U	-1.31
C8G A26G C86G U109C	-5.29
G39C C56A	-0.765
C56U G63C G110A	-4.56
G10C G39A G61A	-1.27
G57A G71U C88G	-5.05
C22A G45A G63C C88U	-5.31
G42A G44C C56G G135U	-3.31
A41C G117C	-4.47
